Reference: the supplement of paper PMC9112550, “Optimization of the antimicrobial peptide Bac7 by deep mutational scanning” (BMC Biology, 2022)

These sequences were tested on Escherichia coli TOP10 (assay: shrunken log2 fold change of peptide-encoding DNA abundance (4.5 h post-induction vs induction); higher = less antimicrobial activity (less host growth inhibition)). Conditions: time post-induction: 4.5 h; library: site-saturation at positions 5, 18, 19, 20.
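Further: peptides expressed intracellularly from a pBAD plasmid library in pooled LB shake-flask culture, induced with 0.3% L-arabinose, DNA abundance read by NGS, three biological replicates, DESeq2 with apeglm shrinkage.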

Row | Sequence | shrunken log2 fold change
1 | RRIRHRPPRLPRPRPRPWRAPRP | -0.0415
2 | RRIRERPPRLPRPRPRPFVNPRP | -0.561
3 | RRIRLRPPRLPRPRPRPGLKPRP | 0.12
4 | RRIRNRPPRLPRPRPRPCRFPRP | -0.0153
5 | RRIRSRPPRLPRPRPRPDWPPRP | 0.149
6 | RRIRIRPPRLPRPRPRPQPEPRP | 0.0576
7 | RRIRSRPPRLPRPRPRPAHSPRP | -0.332
8 | RRIRFRPPRLPRPRPRPAAHPRP | 0.333
9 | RRIRPRPPRLPRPRPRPKYKPRP | -0.39
10 | RRIRMRPPRLPRPRPRPVKIPRP | 0.514
11 | RRIRVRPPRLPRPRPRPLRLPRP | 0.641
12 | RRIRERPPRLPRPRPRPHQFPRP | 0.00386
13 | RRIRFRPPRLPRPRPRPQNLPRP | -0.218
14 | RRIRDRPPRLPRPRPRPMHYPRP | 0.0552
15 | RRIRQRPPRLPRPRPRPHGMPRP | 0.0346
16 | RRIRFRPPRLPRPRPRPAPQPRP | 0.666
17 | RRIRTRPPRLPRPRPRPKWIPRP | -0.232
18 | RRIRMRPPRLPRPRPRPNIGPRP | -0.0302
19 | RRIRNRPPRLPRPRPRPPVAPRP | 0.239
20 | RRIRYRPPRLPRPRPRPQPNPRP | -0.226

Row | Sequence | shrunken log2 fold change
21 | RRIRSRPPRLPRPRPRPKGWPRP | 1.19
22 | RRIRYRPPRLPRPRPRPDPYPRP | -0.222
23 | RRIRTRPPRLPRPRPRPCMGPRP | -0.247
24 | RRIRPRPPRLPRPRPRPTPNPRP | 0.579
25 | RRIRMRPPRLPRPRPRPWFCPRP | -1.02
26 | RRIRNRPPRLPRPRPRPMGYPRP | -0.00459
27 | RRIRNRPPRLPRPRPRPCGVPRP | -0.00664
28 | RRIRARPPRLPRPRPRPAFPPRP | 0.532
29 | RRIRHRPPRLPRPRPRPEFWPRP | 0.42
30 | RRIRIRPPRLPRPRPRPLKWPRP | -0.535
31 | RRIRIRPPRLPRPRPRPNRMPRP | -0.0394
32 | RRIRIRPPRLPRPRPRPHFYPRP | -0.407
33 | RRIRMRPPRLPRPRPRPFAVPRP | -0.109
34 | RRIRPRPPRLPRPRPRPGLHPRP | 0.09
35 | RRIRNRPPRLPRPRPRPHYYPRP | -0.356
36 | RRIRFRPPRLPRPRPRPSNTPRP | -0.422
37 | RRIRPRPPRLPRPRPRPRHLPRP | -0.0836
38 | RRIRTRPPRLPRPRPRPIFYPRP | -0.315
39 | RRIRYRPPRLPRPRPRPQPFPRP | 0.00414
40 | RRIRIRPPRLPRPRPRPWYFPRP | -0.19

Row | Sequence | shrunken log2 fold change
41 | RRIRKRPPRLPRPRPRPLSIPRP | -0.0931
42 | RRIRGRPPRLPRPRPRPEECPRP | 0.0881
43 | RRIRERPPRLPRPRPRPDFCPRP | -0.196
44 | RRIRLRPPRLPRPRPRPSRVPRP | 0.00872
45 | RRIRIRPPRLPRPRPRPIISPRP | -0.101
46 | RRIRFRPPRLPRPRPRPESYPRP | -0.0666
47 | RRIRFRPPRLPRPRPRPMCWPRP | -0.189
48 | RRIRRRPPRLPRPRPRPMRRPRP | 0.425
49 | RRIRMRPPRLPRPRPRPIEQPRP | 0.0161
50 | RRIRNRPPRLPRPRPRPWNVPRP | 0.00489
51 | RRIRPRPPRLPRPRPRPPMFPRP | 0.0198
52 | RRIRSRPPRLPRPRPRPRYCPRP | -0.483
53 | RRIRSRPPRLPRPRPRPGMAPRP | 0.0998
54 | RRIRERPPRLPRPRPRPKVRPRP | -0.0607
55 | RRIRWRPPRLPRPRPRPGWPPRP | 0.644
56 | RRIRVRPPRLPRPRPRPGVNPRP | 0.101
57 | RRIRMRPPRLPRPRPRPNVQPRP | -0.166
58 | RRIRYRPPRLPRPRPRPAHLPRP | -0.0584
59 | RRIRSRPPRLPRPRPRPQYGPRP | -0.118
60 | RRIRIRPPRLPRPRPRPFGHPRP | -0.272
